Test results as given in patent EP2319931A1 (Inhibitex, Inc., dated 2011).

B1: biotinylated ClfB (His-tag recombinant region A) (other)
chain: SEQSNDTTQSSKNNASADSEKNNMIETPQLNTTANDTSDISANTNSANVDSTTKPMSTQTSNTTTTEPASTNETPQPTAIKNQATAAKMQDQTVPQEGNSQVDNKTTNDANSIATNSELKNSQTLDLPQSSPQTISNAQGTSKPSVRTRAVRSLAVAEPVVNAADAKGTNVNDKVTASNFKLEKTTFDPNQSGNTFMAANFTVTDKVKSGDYFTAKLPDSLTGNGDVDYSNSNNTMPIADIKSTNGDVVAKATYDILTKTYTFVFTDYVNNKENINGQFSLPLFTDRAKAPKSGTYDANINIADEMFNNKITYNYSSPIAGIDKPNGANISSQIIGVDTASGQNTYKQTVFVNPKQRVLGNTWVYIKGYQDKIEESSGKVSATDTKLRIFEVNDTSKLSDSYYADPNDSNLKEVTDQFKNRIYYEHPNVASIKFGDITKTYVVLVEGHYDNTGKNLKTQVIQENVDPVTNRDYSIFGWNNENVVRYGGGSADGDSAVN
modifications: Biotinylated with EZ link-sulfo-NHS-LC-Biotin (sites not given); N-terminal His-tag from pV4 left off.
notes: Region A (S45 to N542) amplified from S. aureus Newman genomic DNA, cloned in His-tag vector pV4, purified on nickel; also called ClfB region A; biotinylated purified ClfB region A
B2: biotinylated ClfA region A protein (other)
chain: SENSVTQSDSASNESKSNDSSSVSAAPKTDDTNVSDTKTSSNTNNGETSVAQNPAQQETTQSSSTNATTEETPVTGEATTTTTNQANTPATTQSSNTNAEELVNQTSNETTFNDTNTVSSVNSPQNSTNAENVSTTQDTSTEATPSNNESAPQSTDASNKDVVNQAVNTSAPRMRAFSLAAVAADAPAAGTDITNQLTNVTVGIDSGTTVYPHQAGYVKLNYGFSVPNSAVKGDTFKITVPKELNLNGVTSTAKVPPIMAGDQVLANGVIDSDGNVIYTFTDYVNTKDDVKATLTMPAYIDPENVKKTGNVTLATGIGSTTANKTVLVDYEKYGKFYNLSIKGTIDQIDKTNNTYRQTIYVNPSGDNVIAPVLTGNLKPNTDSNALIDQQNTSIKVYKVDNAADLSESYFVNPENFEDVTNSVNITFPNPNQYKVEFNTPDDQITTPYIVVVNGHIDPNSKGDLALRSTLYGYNSNIIWRSMSWDNEVAFNNGSGSGDGIDKPVVPEQPDEPGEIEPIPE
modifications: biotinylated (sites not given)
notes: domain: region A; also called biotinylated recombinant region A from ClfA; C1fA region A

Tests used:
bovine serum albumin = target: T1, bovine serum albumin (bovine, UniProt P02769 25-607); test: direct ELISA, biotinylated region A on BSA-coated plates
T1 construct: Negative control coat in ELISA; also called BSA

human fibrinogen = target: T2, human fibrinogen (human, UniProt P02671 20-629; P02675 31-491; P02679 27-437); test: direct ELISA, biotinylated region A on fibrinogen-coated plates (Figure 14)
T2 construct: Purified human fibrinogen, bought (Chromogenix for ELISA, Calbiochem for clumping); The plate adherence assays say only 'fibrinogen'; also called solid phase fibrinogen; immobilized fibrinogen
T2 sequence 1: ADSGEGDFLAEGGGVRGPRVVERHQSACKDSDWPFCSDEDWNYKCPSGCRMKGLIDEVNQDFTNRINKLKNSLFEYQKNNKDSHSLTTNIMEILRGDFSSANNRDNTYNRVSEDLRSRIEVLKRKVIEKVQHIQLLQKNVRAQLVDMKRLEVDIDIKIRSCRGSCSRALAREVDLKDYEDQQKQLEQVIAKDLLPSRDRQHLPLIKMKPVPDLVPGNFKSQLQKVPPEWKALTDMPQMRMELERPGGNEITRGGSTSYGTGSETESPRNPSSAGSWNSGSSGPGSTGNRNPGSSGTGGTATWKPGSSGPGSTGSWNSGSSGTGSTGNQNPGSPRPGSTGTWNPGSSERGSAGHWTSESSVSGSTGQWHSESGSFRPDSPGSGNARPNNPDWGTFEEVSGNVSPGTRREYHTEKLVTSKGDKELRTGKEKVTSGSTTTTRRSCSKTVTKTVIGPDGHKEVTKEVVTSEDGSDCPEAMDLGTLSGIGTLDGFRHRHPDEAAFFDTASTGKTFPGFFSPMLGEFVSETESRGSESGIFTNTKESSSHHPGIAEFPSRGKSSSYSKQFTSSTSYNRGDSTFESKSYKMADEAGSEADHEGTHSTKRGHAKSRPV
T2 sequence 2: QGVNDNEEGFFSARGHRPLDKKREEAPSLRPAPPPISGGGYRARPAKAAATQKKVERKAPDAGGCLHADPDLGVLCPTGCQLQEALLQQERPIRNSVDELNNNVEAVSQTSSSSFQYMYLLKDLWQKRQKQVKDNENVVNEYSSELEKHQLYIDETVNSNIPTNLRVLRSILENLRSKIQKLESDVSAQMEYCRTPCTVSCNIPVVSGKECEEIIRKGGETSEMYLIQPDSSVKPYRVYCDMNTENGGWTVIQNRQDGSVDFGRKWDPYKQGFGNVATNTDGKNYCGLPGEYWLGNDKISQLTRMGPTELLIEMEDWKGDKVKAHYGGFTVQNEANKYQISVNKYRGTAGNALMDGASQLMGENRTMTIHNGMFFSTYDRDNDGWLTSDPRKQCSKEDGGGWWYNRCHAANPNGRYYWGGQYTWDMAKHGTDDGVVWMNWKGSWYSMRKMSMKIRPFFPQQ
T2 sequence 3: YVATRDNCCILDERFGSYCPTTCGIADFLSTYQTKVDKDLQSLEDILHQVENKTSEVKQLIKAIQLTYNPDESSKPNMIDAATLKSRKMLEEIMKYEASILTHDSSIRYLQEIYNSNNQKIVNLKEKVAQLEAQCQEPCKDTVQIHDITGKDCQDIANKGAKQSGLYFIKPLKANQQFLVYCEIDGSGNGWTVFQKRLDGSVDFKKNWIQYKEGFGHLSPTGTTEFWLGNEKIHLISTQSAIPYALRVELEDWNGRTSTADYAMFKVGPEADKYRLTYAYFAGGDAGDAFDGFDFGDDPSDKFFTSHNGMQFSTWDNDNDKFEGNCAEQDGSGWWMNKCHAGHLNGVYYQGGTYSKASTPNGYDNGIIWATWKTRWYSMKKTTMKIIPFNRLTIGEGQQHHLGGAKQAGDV

[1] = target: T3, alpha chain of human fibrinogen (human, UniProt P02671 20-629); test: Western affinity blot, blotted human fibrinogen probed with 2.5 µg/ml biotinylated ClfB region A
T3 construct: Band of human fibrinogen (Chromogenix) after SDS-PAGE, on nitrocellulose; also called α chain of fibrinogen
T3 sequence: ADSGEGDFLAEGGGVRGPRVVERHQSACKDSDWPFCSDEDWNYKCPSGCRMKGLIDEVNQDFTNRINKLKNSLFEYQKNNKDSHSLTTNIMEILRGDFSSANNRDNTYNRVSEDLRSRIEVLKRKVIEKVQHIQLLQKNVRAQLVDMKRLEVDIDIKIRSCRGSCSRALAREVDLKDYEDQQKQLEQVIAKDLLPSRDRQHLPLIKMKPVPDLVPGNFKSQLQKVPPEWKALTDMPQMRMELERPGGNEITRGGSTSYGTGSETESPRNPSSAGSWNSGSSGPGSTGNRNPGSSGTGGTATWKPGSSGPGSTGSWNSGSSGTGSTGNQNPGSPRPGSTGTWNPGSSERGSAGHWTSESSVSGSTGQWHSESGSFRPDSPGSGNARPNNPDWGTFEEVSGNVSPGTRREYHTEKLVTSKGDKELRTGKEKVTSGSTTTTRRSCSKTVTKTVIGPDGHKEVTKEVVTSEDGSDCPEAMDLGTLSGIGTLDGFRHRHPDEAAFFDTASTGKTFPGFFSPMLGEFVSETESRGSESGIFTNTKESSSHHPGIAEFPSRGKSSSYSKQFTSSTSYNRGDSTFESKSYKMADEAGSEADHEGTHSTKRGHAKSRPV

[2] = target: B1; test: as above
[3] = target: B2; test: Western affinity blot (Figure 22), blotted human fibrinogen probed with 2.5 µg/ml biotinylated region A

T1 sequence (P02769 25-607 limits assumed): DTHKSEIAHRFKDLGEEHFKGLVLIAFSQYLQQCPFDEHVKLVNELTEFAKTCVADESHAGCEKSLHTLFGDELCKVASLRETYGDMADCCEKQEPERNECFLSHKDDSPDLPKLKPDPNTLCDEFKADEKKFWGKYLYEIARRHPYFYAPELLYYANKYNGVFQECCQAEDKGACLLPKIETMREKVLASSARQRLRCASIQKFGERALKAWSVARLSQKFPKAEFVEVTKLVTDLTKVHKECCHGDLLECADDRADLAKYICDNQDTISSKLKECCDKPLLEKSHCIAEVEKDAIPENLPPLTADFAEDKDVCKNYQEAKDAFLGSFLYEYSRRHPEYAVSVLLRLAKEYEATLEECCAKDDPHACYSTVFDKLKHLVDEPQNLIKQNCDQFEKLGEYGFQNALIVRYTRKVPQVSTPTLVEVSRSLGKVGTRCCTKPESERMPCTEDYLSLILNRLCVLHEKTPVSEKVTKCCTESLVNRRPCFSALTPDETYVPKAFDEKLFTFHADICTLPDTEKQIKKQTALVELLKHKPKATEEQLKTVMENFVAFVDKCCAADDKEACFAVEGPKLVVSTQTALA

B1
binding result (bovine serum albumin): no binding (tested: 0.1-10 µg/ml)
binding result (human fibrinogen): binds
binding result [1]: binds

B2
binding result (bovine serum albumin): no binding
binding at the highest concentration relative to ClfB region A (human fibrinogen): ~50 % greater than ClfB

B3: beta chain of human fibrinogen (other)
chain: QGVNDNEEGFFSARGHRPLDKKREEAPSLRPAPPPISGGGYRARPAKAAATQKKVERKAPDAGGCLHADPDLGVLCPTGCQLQEALLQQERPIRNSVDELNNNVEAVSQTSSSSFQYMYLLKDLWQKRQKQVKDNENVVNEYSSELEKHQLYIDETVNSNIPTNLRVLRSILENLRSKIQKLESDVSAQMEYCRTPCTVSCNIPVVSGKECEEIIRKGGETSEMYLIQPDSSVKPYRVYCDMNTENGGWTVIQNRQDGSVDFGRKWDPYKQGFGNVATNTDGKNYCGLPGEYWLGNDKISQLTRMGPTELLIEMEDWKGDKVKAHYGGFTVQNEANKYQISVNKYRGTAGNALMDGASQLMGENRTMTIHNGMFFSTYDRDNDGWLTSDPRKQCSKEDGGGWWYNRCHAANPNGRYYWGGQYTWDMAKHGTDDGVVWMNWKGSWYSMRKMSMKIRPFFPQQ
notes: Band of human fibrinogen (Chromogenix) after SDS-PAGE, on nitrocellulose; also called β chain of fibrinogen
binding result [2]: binds

B4: gamma chain of human fibrinogen (other)
chain: YVATRDNCCILDERFGSYCPTTCGIADFLSTYQTKVDKDLQSLEDILHQVENKTSEVKQLIKAIQLTYNPDESSKPNMIDAATLKSRKMLEEIMKYEASILTHDSSIRYLQEIYNSNNQKIVNLKEKVAQLEAQCQEPCKDTVQIHDITGKDCQDIANKGAKQSGLYFIKPLKANQQFLVYCEIDGSGNGWTVFQKRLDGSVDFKKNWIQYKEGFGHLSPTGTTEFWLGNEKIHLISTQSAIPYALRVELEDWNGRTSTADYAMFKVGPEADKYRLTYAYFAGGDAGDAFDGFDFGDDPSDKFFTSHNGMQFSTWDNDNDKFEGNCAEQDGSGWWMNKCHAGHLNGVYYQGGTYSKASTPNGYDNGIIWATWKTRWYSMKKTTMKIIPFNRLTIGEGQQHHLGGAKQAGDV
notes: Band of human fibrinogen (Chromogenix) after SDS-PAGE, on nitrocellulose; also called γ chain of fibrinogen
binding result [3]: binds
